Patent publication US20230107034A1 (published 2023)
Changes are numbered by the printed parent chain. Values belong to the binder of their own block, whether it stands above or below them.

Tests used:
[1] = target: T1, synthetic Aβ protofibrils (Aβ1-42-derived protofibrils) (UniProt P05067 672-713); experiment: Octet BLI (Protein G sensor); PF 3.67 nM
[2] = target: T2, monomeric Aβ (UniProt P05067 672-713); experiment: SPR
[3] = target: T1, synthetic Aβ protofibrils …; experiment: Octet BLI (Protein G sensor); PF 14.7 nM
[4] = target: T1, synthetic Aβ protofibrils …; experiment: Octet BLI (Protein G sensor); PF 0.9167 nM
[5] = target: T2, monomeric Aβ; experiment: BIAcore SPR
[6] = target: T2, monomeric Aβ; experiment: SPR; remark: listed apart in the source
[7] = target: T2, monomeric Aβ; experiment: BIAcore SPR; remark: listed apart in the source
[8] = target: T2, monomeric Aβ; experiment: SPR; remark: listed apart in the source
[9] = target: T1, synthetic Aβ protofibrils …; experiment: Octet BLI (Protein G sensor); PF 14.7 nM; LB
[10] = target: T1, synthetic Aβ protofibrils …; experiment: Octet BLI (Protein G sensor); PF 0.9167 nM; LB
[11] = target: T1, synthetic Aβ protofibrils …; experiment: Octet BLI (Protein G sensor); PF 3.67 nM; LB
[12] = target: T2, monomeric Aβ; experiment: SPR; remark: listed apart in the source
[13] = target: T2, monomeric Aβ; experiment: BIAcore SPR; remark: listed apart in the source

T2 sequence (P05067 672-713): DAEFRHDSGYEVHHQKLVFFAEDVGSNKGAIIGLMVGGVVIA
T1 sequence (P05067 672-713): as above

B1: B90 (hybridoma-purified mAb) (antibody, V domains shown)
VH: QVQLVESGGGVVQPGRSLRLSCAASGFTFSSYGMHWVRQAPGKGLEWVAIIWYDGSKKYYADSVKGRFTISRDNSKNTLYLQMNSLRVEDTAVYYCARRGRVGATRDYYYYSMDVWGQGTTVTVSS
VL: AIQMTQSPSSLSASVGDRVTITCRASQGIRNDLGWFHQKPGKAPKLLIYAASSLQSGVPSRFSGSGSGTDFTLTISSLQPEDFATYYCLQDYVYPWTFGQGTKVEIK
Kd [1]: < 1 pM
koff [2]: 0.00722 s⁻¹
Kd [3]: < 1 pM
Kd [4]: < 1 pM

B4: B60 (antibody, V domains shown)
VH: B1 VH with Y32H, I50V, K57N, Y59N, V88A, A104V, D107N, S112G
VL: B1 VL with H37Q, G41V, A50P, V93N
koff [7]: 0.00356 s⁻¹

B5: B51 (hybridoma-purified mAb) (antibody, V domains shown)
VH: B1 VH with Y32H, I50V, K57N, Y59N, V88A, A104V, D107N, S112G
VL: B1 VL with H37Q, G41V, A50P, V93N
Kd [1]: < 1 pM
koff [6]: 0.0144 s⁻¹
Kd [3]: < 1 pM
Kd [4]: < 1 pM

B6: B73 (hybridoma-purified mAb) (antibody, V domains shown)
VH: QLQLQMSGPGLVKPSETLSLTCTVSGGSISSSSYYWGWIRQSPGKGLEWIGSIYYSGRTYYNPSLKSRVTISVDTSKNQFSLKLSSVTAADTAMYYCARRSSGRPYYWGQGTLVTVSS
VL: QAVVTQESALTTSPGGTVILTCRSSTGAVTTSNYANWVQEKPDHLFTGLIGETNNRAPGVPVRFSGSLIGDKAALTITGAQTEDDAMYFCALWYSTHWVFGGGTKLTVL
Kd [1]: < 1 pM
Kd [3]: < 1 pM
koff [8]: 0.0012 s⁻¹
Kd [4]: < 1 pM

B8: B24 (hybridoma-purified mAb) (antibody, V domains shown)
VH: EVQLLESGGGLVQPGGSLRLSCAASGFTFSSYAMTWVRQAPGEGLEWVSTISGSGIRTYYADSVKGRFTISRDNSKNTMYLQMNSLRAEDTAVYYCAKDGLTGDRRWYFDLWGRGTLVTVSS
VL: EIVMTQSPATLSLSPGERATLSCRASQSVSSSYFSWYQQKPGQAPRLLIYGASTRATGIPARFSGSGSGTDFTLTISSLQPEDFAVYYCQQDSNLPLTFGGGTKVEIK
Kd [9]: < 1 pM
Kd [10]: < 1 pM
Kd [11]: < 1 pM
koff [12]: 0.0956 s⁻¹

B9: B19 reprep (=B24) (antibody, V domains shown)
VH: B8 VH
VL: B8 VL
koff [13]: 6.58e-07 s⁻¹

Second part, the binder after the results:

Kd [1]: < 1 pM
koff [5]: 9.41e-05 s⁻¹
Kd [3]: 21800 pM
B2: B28 (hybridoma-purified mAb) (antibody, V domains shown)
VH: QVQLVESGGGVVQPGRSVRLSCAATGFTFSSYGMHWVRQAPGKGLEWVAVIWFDGSNEYYADSVRGRFTISRDNSKNTLYLQMNSLRAEDTAVYYCARRGRVGVTRNYYYYNMDVWGQGTTVTVSS
VL: B1 VL with H37Q, A50P, G68D, V93N, Y94F, W96F, Q100P, E105D

Kd [1]: < 1 pM
koff [6]: 0.00526 s⁻¹
Kd [3]: < 1 pM
Kd [4]: < 1 pM
B3: B54 (hybridoma-purified mAb) (antibody, V domains shown)
VH: B1 VH with S31T, I50L, K65Q, N74S, A104V, D107N, S112G
VL: B1 VL with A25T, G28D, H37Q, L46F, A50P, S56G, T72I, V93N, Y94F, Q100E

koff [7]: 0.00238 s⁻¹
B7: B75 (hybridoma-purified mAb) (antibody, V domains shown)
VH: QVQLVESGGGVVQPGRSLRLSCAASGFTFSSYGMHWVRQAPGKGLEWVAVIWYDGSYKYYADSVKGRFTISRDNSKNTLYLQMNSLRVEDTAVYYCAREGRTYYDFLTGYFDFWGQGTLVTVSS
VL: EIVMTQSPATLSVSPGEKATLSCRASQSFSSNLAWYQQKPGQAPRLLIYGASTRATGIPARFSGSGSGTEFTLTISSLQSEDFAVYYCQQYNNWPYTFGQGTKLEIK
